Data: PMC9649962, “Early diagnosis of bladder cancer by photoacoustic imaging of tumor-targeted gold nanorods” (Photoacoustics, 2022)

What was measured:
[1] = biological target: α5β1 integrin on human bladder cancer 5637 cells (human (endogenous in 5637)) (UniProt P08648)
[2] = biological target: α5β1 integrin on murine bladder cancer MB49-Luc cells (mouse (endogenous in MB49-Luc)) (UniProt P11688)
[3] = biological target: α5β1 integrin on murine bladder cancer MB49-Luc cells (mouse (endogenous in MB49-Luc)) (UniProt P11688); remark: listed apart in the source
MB49-Luc cells = assay: Cell adhesion to GNR-coated plates, MB49-Luc; assay type: cell-based, murine; conditions: excess of free Iso4, plates coated with 250 µg/ml GNRs@Chit-Iso4
Description: (§1) The plates were washed and blocked with 2% BSA in DMEM or RPMI-1640 (200 μl/well, 1 h). MB49-Luc and 5637 cells were detached with DPBS-E, washed twice with DPBS, and suspended in DMEM or RPMI-1640 containing 0.1% BSA (binding buffer-3), and added to the coated-plates (1.5 ×10^5 cells/well, 100 μl). After 1–2 h of incubation at 37 °C, 5% CO2, the plates were washed with binding buffer-3. Adherent cells were fixed and stained with 0.5% crystal violet in 20% methanol. After washing with water, the dye was extracted from cells using a 10% acetic acid solution (140 μl/well) and the absorbance at 570 nm was measured using a microplate reader.

5637 cells = assay: Cell adhesion to GNR-coated plates, 5637; assay type: cell-based, human; conditions: excess of free Iso4, plates coated with 250 µg/ml GNRs@Chit-Iso4
Description: as §1

[4] = tested on: MB49-Luc orthotopic bladder tumor; assay: In vivo PAI of orthotopic MB49-Luc bladder tumor; design: species or system mouse; conditions: co-administration of excess free peptide (296 µg) with GNRs@Chit-Iso4 (1.5 nmol Au); two mice per condition
Description: All procedures and studies involving mice were approved by the Institutional Animal Care and Use Committee of San Raffaele Scientific Institute and performed according to the prescribed guidelines (IACUC, approval number 942). Female albino C57BL/6 J mice (9 weeks old, weighing about 20 g, Charles River Laboratories, Italy) were anesthetized with ketamine (80 mg/kg) and xylazine (15 mg/kg) and kept in dorsal position. Using a 24-gauge catheter, the bladder of each mouse was emptied and instilled with or without MB49-Luc cells (10^5 cells/100 μl in DPBS). Thirty minutes later the catheter was removed, and mice were allowed to recover and returned to their cage. Tumor growth was monitored by measuring the tumor volume through US imaging (see below) and in vivo bioluminescent quantification after administration of luciferin (15 mg/kg, intra peritoneum) using the non-invasive In Vivo Imaging System (IVIS, PerkinElmer, USA). […]

[5] = biological target: Wild-type human integrin α5β1 (octyl β-D-glucopyranoside preparation) (human) (UniProt P08648); assay: ELISA; α5β1 (4 μg/ml) coated on PVC microtiter plates; Iso4-HRP or ARA-HRP 0–400 nM in 25 mM Tris-HCl pH 7.4, 150 mM sodium chloride, 1 mM magnesium chloride, 1 mM manganese chloride, 1% BSA, 2 h; no detergent; bound peroxidase by OPD, absorbance at 490 nm; effect of urine: Iso4-HRP 300 nM mixed with human urine (11.5–90%)

UniProt P11688, sequence (P11688 45-1053, chain 1 of 2): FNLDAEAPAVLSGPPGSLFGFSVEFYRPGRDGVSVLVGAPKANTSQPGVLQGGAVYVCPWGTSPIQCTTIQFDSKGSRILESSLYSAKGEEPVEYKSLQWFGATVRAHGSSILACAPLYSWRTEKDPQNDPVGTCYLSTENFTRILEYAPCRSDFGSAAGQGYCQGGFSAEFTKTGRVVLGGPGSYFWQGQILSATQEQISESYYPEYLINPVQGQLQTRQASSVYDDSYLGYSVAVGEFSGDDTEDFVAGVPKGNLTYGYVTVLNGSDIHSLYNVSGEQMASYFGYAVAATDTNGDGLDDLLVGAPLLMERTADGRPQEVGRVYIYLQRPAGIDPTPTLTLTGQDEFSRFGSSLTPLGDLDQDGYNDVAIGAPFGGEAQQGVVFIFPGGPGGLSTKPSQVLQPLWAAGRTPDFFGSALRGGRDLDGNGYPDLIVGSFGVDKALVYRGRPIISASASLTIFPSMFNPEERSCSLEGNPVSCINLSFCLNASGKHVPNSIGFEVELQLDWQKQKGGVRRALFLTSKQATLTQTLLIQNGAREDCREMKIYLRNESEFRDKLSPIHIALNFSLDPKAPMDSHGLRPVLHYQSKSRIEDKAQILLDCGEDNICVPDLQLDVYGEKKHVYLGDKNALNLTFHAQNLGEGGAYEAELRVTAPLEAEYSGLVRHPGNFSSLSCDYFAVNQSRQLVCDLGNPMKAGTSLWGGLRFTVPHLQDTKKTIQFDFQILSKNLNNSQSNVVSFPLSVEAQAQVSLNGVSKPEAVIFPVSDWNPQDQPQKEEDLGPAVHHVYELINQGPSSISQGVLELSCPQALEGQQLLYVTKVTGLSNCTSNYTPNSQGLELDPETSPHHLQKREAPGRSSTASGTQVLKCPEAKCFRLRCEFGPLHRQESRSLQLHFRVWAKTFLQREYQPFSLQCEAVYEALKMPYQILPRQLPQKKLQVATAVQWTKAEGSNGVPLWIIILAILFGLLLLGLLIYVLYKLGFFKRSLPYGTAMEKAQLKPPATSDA
UniProt P11688, sequence (P09055 21-798, chain 2 of 2, further chain): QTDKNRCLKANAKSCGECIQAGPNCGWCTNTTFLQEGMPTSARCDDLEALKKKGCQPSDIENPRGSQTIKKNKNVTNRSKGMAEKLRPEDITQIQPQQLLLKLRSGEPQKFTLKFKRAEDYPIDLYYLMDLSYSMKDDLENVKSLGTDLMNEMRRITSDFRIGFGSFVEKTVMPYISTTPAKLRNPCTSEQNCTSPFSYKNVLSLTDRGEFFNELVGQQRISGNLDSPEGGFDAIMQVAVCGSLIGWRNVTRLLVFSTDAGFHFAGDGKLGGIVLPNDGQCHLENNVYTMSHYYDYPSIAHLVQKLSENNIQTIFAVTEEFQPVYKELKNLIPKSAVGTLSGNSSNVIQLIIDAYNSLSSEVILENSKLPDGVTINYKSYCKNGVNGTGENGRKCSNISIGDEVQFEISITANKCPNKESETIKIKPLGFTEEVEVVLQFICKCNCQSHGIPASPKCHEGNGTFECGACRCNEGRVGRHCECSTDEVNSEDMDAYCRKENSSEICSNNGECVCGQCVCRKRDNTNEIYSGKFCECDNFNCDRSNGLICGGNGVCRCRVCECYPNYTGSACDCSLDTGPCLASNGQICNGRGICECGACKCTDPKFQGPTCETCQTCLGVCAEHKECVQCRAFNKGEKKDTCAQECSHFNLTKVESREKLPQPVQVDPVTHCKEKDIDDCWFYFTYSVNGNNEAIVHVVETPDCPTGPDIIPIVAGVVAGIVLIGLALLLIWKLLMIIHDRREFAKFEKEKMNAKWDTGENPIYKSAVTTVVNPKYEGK
UniProt P08648, sequence (P08648 42-1049, chain 1 of 2): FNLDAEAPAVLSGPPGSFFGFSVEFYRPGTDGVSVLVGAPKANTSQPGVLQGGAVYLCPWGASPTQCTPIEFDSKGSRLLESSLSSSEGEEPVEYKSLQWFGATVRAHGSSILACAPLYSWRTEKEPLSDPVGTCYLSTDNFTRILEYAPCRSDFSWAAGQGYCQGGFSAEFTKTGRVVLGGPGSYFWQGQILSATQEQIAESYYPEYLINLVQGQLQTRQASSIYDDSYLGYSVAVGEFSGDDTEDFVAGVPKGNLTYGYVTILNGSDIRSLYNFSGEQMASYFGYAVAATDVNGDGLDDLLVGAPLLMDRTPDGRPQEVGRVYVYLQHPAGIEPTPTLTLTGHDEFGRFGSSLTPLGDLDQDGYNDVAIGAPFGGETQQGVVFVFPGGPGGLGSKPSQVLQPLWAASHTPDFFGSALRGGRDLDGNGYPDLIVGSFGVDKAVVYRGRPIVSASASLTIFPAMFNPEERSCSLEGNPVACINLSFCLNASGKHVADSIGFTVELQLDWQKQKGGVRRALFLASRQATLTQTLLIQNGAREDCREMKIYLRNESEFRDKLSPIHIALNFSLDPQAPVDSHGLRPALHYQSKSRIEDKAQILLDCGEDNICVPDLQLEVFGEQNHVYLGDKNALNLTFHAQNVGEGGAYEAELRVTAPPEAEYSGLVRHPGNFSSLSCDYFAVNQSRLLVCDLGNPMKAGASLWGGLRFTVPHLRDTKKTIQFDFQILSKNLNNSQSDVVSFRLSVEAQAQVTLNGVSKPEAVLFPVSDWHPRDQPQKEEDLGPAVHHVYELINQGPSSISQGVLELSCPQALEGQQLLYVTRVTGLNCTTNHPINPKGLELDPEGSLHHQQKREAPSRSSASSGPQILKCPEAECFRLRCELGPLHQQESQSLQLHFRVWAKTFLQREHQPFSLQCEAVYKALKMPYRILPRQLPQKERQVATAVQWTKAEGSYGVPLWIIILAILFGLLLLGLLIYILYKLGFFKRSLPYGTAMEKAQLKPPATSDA
UniProt P08648, sequence (P05556 21-798, chain 2 of 2, further chain): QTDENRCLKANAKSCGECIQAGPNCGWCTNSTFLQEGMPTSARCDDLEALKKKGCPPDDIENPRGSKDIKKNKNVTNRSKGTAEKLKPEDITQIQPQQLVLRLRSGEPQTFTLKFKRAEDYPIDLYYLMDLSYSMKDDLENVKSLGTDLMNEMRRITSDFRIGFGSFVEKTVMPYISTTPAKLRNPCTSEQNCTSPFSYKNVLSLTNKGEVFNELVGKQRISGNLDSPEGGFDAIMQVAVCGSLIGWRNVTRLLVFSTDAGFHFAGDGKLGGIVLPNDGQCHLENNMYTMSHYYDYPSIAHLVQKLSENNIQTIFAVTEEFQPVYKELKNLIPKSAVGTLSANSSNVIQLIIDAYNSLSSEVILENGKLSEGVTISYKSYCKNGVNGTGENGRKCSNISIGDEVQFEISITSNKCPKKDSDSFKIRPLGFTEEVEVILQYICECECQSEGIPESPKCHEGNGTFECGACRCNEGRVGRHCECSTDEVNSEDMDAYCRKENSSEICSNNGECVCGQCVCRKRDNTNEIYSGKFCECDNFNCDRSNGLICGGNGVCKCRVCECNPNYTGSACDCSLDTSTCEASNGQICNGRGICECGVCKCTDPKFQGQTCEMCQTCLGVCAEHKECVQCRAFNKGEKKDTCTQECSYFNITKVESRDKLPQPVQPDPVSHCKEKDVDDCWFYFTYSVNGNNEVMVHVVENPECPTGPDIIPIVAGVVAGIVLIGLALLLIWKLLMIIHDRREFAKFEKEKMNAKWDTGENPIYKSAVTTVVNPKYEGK

Substance: GNRs@Chit-Iso4 (chitosan-coated gold nanorods functionalized with Iso4 through a maleimide-PEG12-NHS linker) (peptide)
- EC50 of adhesion of 5637 cells to plates coated with GNRs@Chit-Iso4 [1]: 1.3 mg/L
- EC50 of adhesion of MB49-Luc cells to plates coated with GNRs@Chit-Iso4 [2]: 0.73 mg/L
- increase of MB49-Luc cell adhesion to GNRs@Chit-Iso4-coated plates in DMEM containing 25–75% human urine [3]: 20%

Substance: c(CphgisoDGRG) (head to tail) [Iso4]
- inhibition of cell adhesion by free peptide (MB49-Luc cells): completely inhibited cell adhesion
- inhibition of cell adhesion by free peptide (5637 cells): completely inhibited cell adhesion
- effect of free peptide on tumor binding of GNR@Chit-Iso4 [4]: reduced by co-administration of an excess of free Iso4 peptide

Substance: Iso4-HRP (head-to-tail cyclized peptide c(CphgisoDGRG), Iso4, conjugated to maleimide-activated horseradish peroxidase)
- recovery of binding in 90% human urine [5]: 55%
